Source: patent US20190085055A1
“And” between values parts separate entries of the source, which are not always exact repeats. Equal values may be shown once.

Experiments:
[1] = target: D3H44 light chain F116A; test: LCCA (SPR), competitor L1 WT
[2] = target: D3H44 light chain F118W_V133S; test: LCCA (SPR), competitor L1 F116S
[3] = target: D3H44 light chain F116A_L135A; test: LCCA (SPR), competitor L1 L135W
[4] = target: D3H44 light chain F116A_L135V; test: LCCA (SPR), competitor L1 L135W
[5] = target: D3H44 light chain, wild type; test: LCCA (SPR), competitor L2 F116A
[6] = target: D3H44 light chain F116A_L135A; test: LCCA (SPR), competitor L1 L135W_N137A
[7] = target: D3H44 light chain L135W_N137A; test: LCCA (SPR), competitor L2 F116A_L135A
[8] = target: D3H44 light chain L135W; test: LCCA (SPR), competitor L2 F116A_L135A
[9] = target: D3H44 light chain L135W; test: LCCA (SPR), competitor L2 F116A_L135V
[10] = target: D3H44 light chain F116S; test: LCCA (SPR), competitor L2 F118W_V133S
[11] = target: D3H44 light chain Q124R_Q160K_T178R; test: LCCA: H1 co-expressed with L1 and L2, SPR read-out of light chain tags; competing chain L1
[12] = target: D3H44 light chain Q124E_Q160E_T178D; test: LCCA: H1 co-expressed with L1 and L2, SPR read-out of light chain tags; competing chain L2
[13] = target: D3H44 light chain S176L; test: LCCA (SPR), competitor L2 WT
[14] = target: D3H44 light chain, wild type; test: LCCA (SPR), competitor L1 S176L
[15] = target: D3H44 light chain S176L; test: LCCA (SPR), competitor L1 V133S
[16] = target: D3H44 light chain V133S; test: LCCA (SPR), competitor L2 S176L
[17] = target: D3H44 light chain S176L; test: LCCA: H2 co-expressed with L1 and L2, SPR read-out of light chain tags; competing chain L1
[18] = target: D3H44 light chain V133S; test: LCCA: H2 co-expressed with L1 and L2, SPR read-out of light chain tags; competing chain L2
[19] = target: D3H44 light chain Q124R_Q160K_T178R; test: LCCA: H2 co-expressed with L1 and L2, SPR read-out of light chain tags; competing chain L1
[20] = target: D3H44 light chain Q124E_Q160E_T178D; test: LCCA: H2 co-expressed with L1 and L2, SPR read-out of light chain tags; competing chain L2
[21] = target: D3H44 light chain Q124E_V133W_Q160E_T180E; test: LCCA (SPR), competitor L2 V133A_Q160K_T178R
[22] = target: D3H44 light chain V133A_Q160K_T178R; test: LCCA (SPR), competitor L1 Q124E_V133W_Q160E_T180E
[23] = target: D3H44 light chain V133A_Q160K_T178R; test: LCCA: H2 co-expressed with L1 and L2, SPR read-out of light chain tags; competing chain L1
[24] = target: D3H44 light chain Q124E_V133W_Q160E_T180E; test: LCCA: H2 co-expressed with L1 and L2, SPR read-out of light chain tags; competing chain L2
[25] = target: D3H44 light chain V133A_Q160K_T178R; test: LCCA: H1 co-expressed with L1 and L2, SPR read-out of light chain tags; competing chain L1
[26] = target: D3H44 light chain Q124E_V133W_Q160E_T180E; test: LCCA: H1 co-expressed with L1 and L2, SPR read-out of light chain tags; competing chain L2
[27] = target: D3H44 light chain Q38E; test: LCCA (SPR), competitor L1 Q38M
[28] = target: D3H44 light chain Q38M; test: LCCA (SPR), competitor L2 Q38E
[29] = target: D3H44 light chain Q38E; test: LCCA (SPR), competitor L1 Q38M; first of two ratios in the cell
[30] = target: D3H44 light chain Q38M; test: LCCA (SPR), competitor L2 Q38E; first of two ratios in the cell
[31] = target: D3H44 light chain Q38E; test: LCCA (SPR), competitor L1 Q38M; second of two ratios in the cell
[32] = target: D3H44 light chain Q38M; test: LCCA (SPR), competitor L2 Q38E; second of two ratios in the cell

For D3H44 heavy chain (Fab format) A139W, the H1 L2 of H1 L1:H1 L2 (screen) [1] was 30.5, the H2 L2 of H2 L2:H2 L1 (screen) [2] was 76.5 and the H2 L2 of H2 L2:H2 L1 (verification) [2] was 38.1 and 40.9. For the same substance, the H2 L2 of H2 L2:H2 L1 (screen) [3] was 77.4, the H2 L2 of H2 L2:H2 L1 (verification) [3] was 78.7 and the H2 L2 of H2 L2:H2 L1 (screen) [4] was 62.7. It also gave an H2 L2 of H2 L2:H2 L1 (verification) [4] of 76.7, an H1 L1 of H1 L1:H1 L2 (screen) [5] of 58.7 and an H2 L2 of H2 L2:H2 L1 (screen) [6] of 73.6. For the same substance, the H2 L1 of H2 L2:H2 L1 (screen) [7] was 19.8, the H2 L1 of H2 L2:H2 L1 (screen) [8] was 17.4 and the H2 L1 of H2 L2:H2 L1 (verification) [8] was 10.2. The H2 L1 of H2 L2:H2 L1 (screen) [9] was 34.6, the H2 L1 of H2 L2:H2 L1 (verification) [9] was 19.1 and the H2 L1 of H2 L2:H2 L1 (screen) [10] was 4.6. The H2 L1 of H2 L2:H2 L1 (verification) [10] was 40.9 and 38.1.

For “D3H44 heavy chain (Fab format) D146G_S186R”, the H1 Readout (H1-L2) [11] was 1 and the H1 Readout (H1-L1) [12] was 84.

Work on “D3H44 heavy chain (Fab format) F174V_P175S_S188G” yielded an H1 L1 of H1 L1:H1 L2 (screen) [13] of 53.4, an H1 L2 of H1 L1:H1 L2 (screen) [14] of 9.68 and an H2 L2 of H2 L2:H2 L1 (screen) [15] of 81.1. For the same substance, the H2 L2 of H2 L2:H2 L1 (verification) [15] was 68.1, the H2 L1 of H2 L2:H2 L1 (screen) [16] was 1.44 and the H2 L1 of H2 L2:H2 L1 (verification) [16] was 2.9. For the same substance, the H2 Readout (H2-L2) [17] was 98 and the H2 Readout (H2-L1) [18] was 1.

In the case of “D3H44 heavy chain (Fab format) K145E_D146G_Q179D_S188L”, the H2 Readout (H2-L2) [19] is reported as 74 and the H2 Readout (H2-L1) [20] is reported as 2.

With “D3H44 heavy chain (Fab format) K145T_Q179D_S188F” the H2 L1 of H2 L2:H2 L1 (screen) [21] was 1.5, the H2 L1 of H2 L2:H2 L1 (verification) [21] was 11.5 and the H2 L2 of H2 L2:H2 L1 (screen) [22] was 87.3. It also gave an H2 L2 of H2 L2:H2 L1 (verification) [22] of 83.2, an H2 Readout (H2-L2) [23] of 87 and an H2 Readout (H2-L1) [24] of 14.

“D3H44 heavy chain (Fab format) L143A_D144G_Q179R” showed an H1 L1 of H1 L1:H1 L2 (screen) [21] of 97.4, an H1 L1 of H1 L1:H1 L2 (verification) [21] of 93.6 and an H1 L2 of H1 L1:H1 L2 (screen) [22] of 0.4. For the same substance, the H1 L2 of H1 L1:H1 L2 (verification) [22] was 0.6, the H1 Readout (H1-L2) [25] was 1 and the H1 Readout (H1-L1) [26] was 104.

Substance D3H44 heavy chain (Fab format) Q39M has an H1 L2 of H1 L1:H1 L2 (screen) [27] of 33.3, an H1 L1 of H1 L1:H1 L2 (screen) [28] of 69.6 and an H1 L2 of H1 L1:H1 L2 (verification) [29] of 31.3. For the same substance, the H1 L1 of H1 L1:H1 L2 (verification) [30] was 60.2, the H1 L2 of H1 L1:H1 L2 (verification) [31] was 40.6 and the H1 L1 of H1 L1:H1 L2 (verification) [32] was 58.8.
